Measurements published in patent US20220025010A1 (ANTAG THERAPEUTICS, published 2022).
Where no end group is shown, it is not given here. The star is where a group is joined. C16 diacid = O=C(O)CCCCCCCCCCCCCCC(=O)*

T1: human GIP receptor (human, UniProt P48546 22-466)
T1 sequence (looked up): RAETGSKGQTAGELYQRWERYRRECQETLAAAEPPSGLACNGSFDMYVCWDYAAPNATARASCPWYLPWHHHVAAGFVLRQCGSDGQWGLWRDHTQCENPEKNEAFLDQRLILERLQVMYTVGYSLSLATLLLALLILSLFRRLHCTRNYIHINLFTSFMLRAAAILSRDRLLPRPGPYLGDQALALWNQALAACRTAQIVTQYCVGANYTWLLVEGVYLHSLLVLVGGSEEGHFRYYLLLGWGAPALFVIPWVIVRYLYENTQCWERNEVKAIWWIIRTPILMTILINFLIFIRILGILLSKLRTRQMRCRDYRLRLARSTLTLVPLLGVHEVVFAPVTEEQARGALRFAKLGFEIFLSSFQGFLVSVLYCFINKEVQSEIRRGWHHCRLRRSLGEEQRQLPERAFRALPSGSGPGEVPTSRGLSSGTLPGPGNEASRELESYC


Biological target: T1, human GIP receptor
Assay: cell-based or functional assay

Binder	CisBio cAMP agonism % Efficacy [%]	DiscoveRx cAMP agonism Emax	DiscoveRx cAMP antagonism IC50 [nM]	DiscoveRx cAMP antagonism log IC50 [log M]	CisBio cAMP antagonism % inhib [%]	CisBio cAMP antagonism IC50 [nM]	CisBio cAMP antagonism pIC50
GGTFISDYSIAMDRIKQQDFVNWLLAQR (HELM PEPTIDE1{G.G.T.F.I.S.D.Y.S.I.A.M.D.R.I.K.Q.Q.D.F.V.N.W.L.L.A.Q.R}|PEPTIDE2{[O=C(O)CCCCCCCCCCCCCCC(=O)[*:2]].[gGlu].[O=C(COCCOCCN[*:1])[*:2]]}$PEPTIDE1,PEPTIDE2,16:R3-3:R2$$$V2.0; N-terminus assumed; SMILES CC[C@H](C)[C@H](NC(=O)[C@H](CO)NC(=O)[C@H](Cc1ccc(O)cc1)NC(=O)[C@H](CC(=O)O)NC(=O)[C@H](CO)NC(=O)[C@@H](NC(=O)[C@H](Cc1ccccc1)NC(=O)[C@@H](NC(=O)CNC(=O)CN)[C@@H](C)O)[C@@H](C)CC)C(=O)N[C@@H](C)C(=O)N[C@@H](CCSC)C(=O)N[C@@H](CC(=O)O)C(=O)N[C@@H](CCCNC(=N)N)C(=O)N[C@H](C(=O)N[C@@H](CCCCNC(=O)COCCOCCNC(=O)CC[C@H](NC(=O)CCCCCCCCCCCCCCC(=O)O)C(=O)O)C(=O)N[C@@H](CCC(N)=O)C(=O)N[C@@H](CCC(N)=O)C(=O)N[C@@H](CC(=O)O)C(=O)N[C@@H](Cc1ccccc1)C(=O)N[C@H](C(=O)N[C@@H](CC(N)=O)C(=O)N[C@@H](Cc1c[nH]c2ccccc12)C(=O)N[C@@H](CC(C)C)C(=O)N[C@@H](CC(C)C)C(=O)N[C@@H](C)C(=O)N[C@@H](CCC(N)=O)C(=O)N[C@@H](CCCNC(=N)N)C(=O)O)C(C)C)[C@@H](C)CC) [AT269]	0	12	91	-7	–	–	–
PGTFISDYSIAMDRIK(C16 diacid)QQDFVNWLLAQR-OH (N-terminus assumed; SMILES CC[C@H](C)[C@H](NC(=O)[C@H](CO)NC(=O)[C@H](Cc1ccc(O)cc1)NC(=O)[C@H](CC(=O)O)NC(=O)[C@H](CO)NC(=O)[C@@H](NC(=O)[C@H](Cc1ccccc1)NC(=O)[C@@H](NC(=O)CNC(=O)[C@@H]1CCCN1)[C@@H](C)O)[C@@H](C)CC)C(=O)N[C@@H](C)C(=O)N[C@@H](CCSC)C(=O)N[C@@H](CC(=O)O)C(=O)N[C@@H](CCCNC(=N)N)C(=O)N[C@H](C(=O)N[C@@H](CCCCNC(=O)CCCCCCCCCCCCCCC(=O)O)C(=O)N[C@@H](CCC(N)=O)C(=O)N[C@@H](CCC(N)=O)C(=O)N[C@@H](CC(=O)O)C(=O)N[C@@H](Cc1ccccc1)C(=O)N[C@H](C(=O)N[C@@H](CC(N)=O)C(=O)N[C@@H](Cc1c[nH]c2ccccc12)C(=O)N[C@@H](CC(C)C)C(=O)N[C@@H](CC(C)C)C(=O)N[C@@H](C)C(=O)N[C@@H](CCC(N)=O)C(=O)N[C@@H](CCCNC(=N)N)C(=O)O)C(C)C)[C@@H](C)CC) [AT261]	0	24	46	-7.3	62	200	6.7
